# Patent publication US7670782B2, “Screening of compounds for CAT1 transporter activity” (XenoPort, Inc., priority 2005, dated 2010)
# Tested on: NCCC[C@H](N)C(=O)O
# Assay: cells, lysate or membranes
# Conditions: other: direct uptake into LLCPK-TREx-hCAT1 cells
# hCAT1 (Homo sapiens), sequence (chain, as listed by the source): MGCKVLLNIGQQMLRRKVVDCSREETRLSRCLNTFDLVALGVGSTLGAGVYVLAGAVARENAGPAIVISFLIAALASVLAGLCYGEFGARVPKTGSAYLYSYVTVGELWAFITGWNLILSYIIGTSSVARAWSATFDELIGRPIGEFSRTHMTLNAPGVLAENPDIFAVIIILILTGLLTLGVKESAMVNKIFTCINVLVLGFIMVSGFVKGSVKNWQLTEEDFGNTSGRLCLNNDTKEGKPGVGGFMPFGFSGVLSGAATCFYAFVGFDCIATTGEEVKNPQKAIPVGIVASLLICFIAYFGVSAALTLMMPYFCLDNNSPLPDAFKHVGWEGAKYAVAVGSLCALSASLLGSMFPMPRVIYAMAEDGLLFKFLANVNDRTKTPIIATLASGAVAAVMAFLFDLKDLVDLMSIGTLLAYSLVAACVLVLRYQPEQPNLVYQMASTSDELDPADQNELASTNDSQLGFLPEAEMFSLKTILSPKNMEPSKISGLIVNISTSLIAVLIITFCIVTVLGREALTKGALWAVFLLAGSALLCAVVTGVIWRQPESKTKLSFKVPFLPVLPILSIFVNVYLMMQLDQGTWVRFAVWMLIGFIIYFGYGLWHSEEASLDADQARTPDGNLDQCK
substance,measurement,setting,value
hCAT1 (Homo sapiens),Km,,200 µM
same,Km,"5 minutes at room temperature, specific uptake (+TET minus no TET)",184 µM
